First the molecules themselves.
T1: corticotropin-releasing hormone (CRH) peptide (human and mouse (same sequence), not fully specified)
T1 peptide: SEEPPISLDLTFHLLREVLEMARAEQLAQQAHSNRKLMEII

T2: biotinylated CRH (human and mouse, not fully specified; biotinylated, position not stated)
T2 construct: also called Biotin-CRH; biotin-labeled CRH
T2 peptide: T1 peptide

B1: PR302341-43 (antibody, human IgG1, kappa, V domains shown)
VH: QVQLVQSGAEVKKPGASVKVSCKASGYTFTDYFMKWVRQAPGQGLEWMGVINPNNADIFYNQKFKGRVTMTVDKSTSTAYMELSSLRSEDTAVYYCARGTDRALFAYWGQGTLVTVSS
VL: DVVMTQTPLSSPVTLGQPASISCRSGQSIVHSDGNTYLEWYQQRPGQPPRLLIYKVSNRFSGVPDRFSGSGAGTDFTLKISRVEAEDLGVYYCFQGSHIPWTFGGGTKVEIKR
B2: PR302341-62 (antibody, human IgG1, kappa, V domains shown)
VH: B1 VH with G44R, N55S, A56G, M70I, V72R, K74T, T76A
VL: B1 VL with T7S, S11L, D33E, P48S, A72S
B3: PR302341-50 (antibody, human IgG1, kappa, V domains shown)
VH: B1 VH with N55S, A56G
VL: B1 VL with D33E
B4: PR302341-51 (antibody, human IgG1, kappa, V domains shown)
VH: B1 VH with N55Q, A56G
VL: B1 VL with D33E
B5: PR302341-55 (antibody, human IgG1, kappa, V domains shown)
VH: B1 VH with G44R, M70I, V72R, K74T, T76A
VL: B1 VL with T7S, S11L, P48S, A72S
B6: PR302341-67 (antibody, human IgG1, kappa, V domains shown)
VH: B1 VH with A56G
VL: B1 VL with G34A
B7: PR302341-58 (antibody, human IgG1, kappa, V domains shown)
VH: B1 VH with G44R, M70I, V72R, K74T, T76A
VL: B1 VL with T7S, S11L, G34A, P48S, A72S
B8: PR302341-60 (antibody, human IgG1, kappa, V domains shown)
VH: B1 VH with G44R, N55Q, A56G, M70I, V72R, K74T, T76A
VL: B1 VL with T7S, S11L, G34A, P48S, A72S
B9: PR302341-64 (antibody, human IgG1, kappa, V domains shown)
VH: B1 VH with G44R, M70I, V72R, K74T, T76A
VL: B1 VL with T7S, S11L, D33S, P48S, A72S
B10: PR302341-57 (antibody, human IgG1, kappa, V domains shown)
VH: B1 VH with G44R, N55Q, A56G, M70I, V72R, K74T, T76A
VL: B1 VL with T7S, S11L, P48S, A72S
B11: PR302341-69 (antibody, human IgG1, kappa, V domains shown)
VH: B1 VH with A56G
VL: B1 VL with D33S
B12: PR302341-44 (antibody, human IgG1, kappa, V domains shown)
VH: B1 VH with N55S, A56G
VL: B1 VL
B13: PR302341-63 (antibody, human IgG1, kappa, V domains shown)
VH: B1 VH with G44R, N55Q, A56G, M70I, V72R, K74T, T76A
VL: B1 VL with T7S, S11L, D33E, P48S, A72S
B14: PR302341-56 (antibody, human IgG1, kappa, V domains shown)
VH: B1 VH with G44R, N55S, A56G, M70I, V72R, K74T, T76A
VL: B1 VL with T7S, S11L, P48S, A72S
B15: PR302341-52 (antibody, human IgG1, kappa, V domains shown)
VH: B1 VH
VL: B1 VL with D33S
B16: PR302341-54 (antibody, human IgG1, kappa, V domains shown)
VH: B1 VH with N55Q, A56G
VL: B1 VL with D33S
B17: PR302341-49 (antibody, human IgG1, kappa, V domains shown)
VH: B1 VH
VL: B1 VL with D33E
B18: PR302341-59 (antibody, human IgG1, kappa, V domains shown)
VH: B1 VH with G44R, N55S, A56G, M70I, V72R, K74T, T76A
VL: B1 VL with T7S, S11L, G34A, P48S, A72S
B19: PR302341-48 (antibody, human IgG1, kappa, V domains shown)
VH: B1 VH with N55Q, A56G
VL: B1 VL with G34A
B20: PR302341-47 (antibody, human IgG1, kappa, V domains shown)
VH: B1 VH with N55S, A56G
VL: B1 VL with G34A
B21: PR302341-61 (antibody, human IgG1, kappa, V domains shown)
VH: B1 VH with G44R, M70I, V72R, K74T, T76A
VL: B1 VL with T7S, S11L, D33E, P48S, A72S
B22: PR302341-68 (antibody, human IgG1, kappa, V domains shown)
VH: B1 VH with A56G
VL: B1 VL with D33E
B23: PR302341-53 (antibody, human IgG1, kappa, V domains shown)
VH: B1 VH with N55S, A56G
VL: B1 VL with D33S
B24: PR302341-45 (antibody, human IgG1, kappa, V domains shown)
VH: B1 VH with N55Q, A56G
VL: B1 VL
B25: PR302341-46 (antibody, human IgG1, kappa, V domains shown)
VH: B1 VH
VL: B1 VL with G34A
B26: PR302334-27 (antibody, human IgG1, kappa, V domains shown)
VH: EVQLVESGGGLVQPGGSLRLSCAASGFTFSTYAMSWVRQAPGKGLEWVASIRSGGTTYYPDSVKGRFTISRDNSKNSLYLQMNSLRAEDTAVYYCTRGIDWGQGTTVTVSS
VL: DIQMTQSSLSASVSLGDRVTITCKASQSVNNDVAWYQQKPGKAPRLLIYYASNRYTGVPSRFSGSGSGTDFTFTISSLQPEDLATYFCQQDYSSWTFGGGTKVEIKR
notes: Humanized variant of PR302334
B27: PR302334-25 (antibody, human IgG1, kappa, V domains shown)
VH: B26 VH with Q13K, S74A
VL: B26 VL
notes: Humanized variant of PR302334
B28: PR302334-11 (antibody, human IgG1, kappa, V domains shown)
VH: B26 VH with S77T
VL: B26 VL with L83I, F87Y
notes: Humanized variant of PR302334
B29: PR302309 (antibody, human IgG1, kappa, V domains shown)
VH: QIQLVQSGPELKKPGETVKISCKASGYTFTNYGMNWVKQAPGKVLKWMGWINTYTGEPIYTDDFKGRFAFSLETSASTAYLQINNLKNEDTATYFCSRSTMITTGGVFAYWGQGTLVTVSA
VL: DVLMAQTPLSLPVSLGDQASISCRSSQTIVHSDGNTYLEWYLQKPGQSPKLLIYKVSNRFSGVPDRFSGSGSGTDFTLKISRVEAEDLGVYYCFQGSHVPWTFGGGTKLEIKR
notes: Series 7; mouse variable domains with human IgG1 wildtype Fc
B30: PR301777 (antibody, human IgG1, kappa, V domains shown)
VH: EMKLEESGGGLVQPGGSMKLSCVASGFTFSNYWMNWVRQSPEKGLEWVAEIRLKSNNYATHYAESVKGRFTISRDDSKSGVYLQMNNLGAEDTGIYYCTVGTLVYWGQGTLVTVSA
VL: DIVLTQSPASLAVSLGQRATISCRASQSVSTSTYNYMHWFQQKPGQPPKLLIKFASNLESGVPARFSGSGSGTDFTLNIHPVEEEDTATFYCQHSWEIPYTFGGGTKLEIKR
notes: Series 5; mouse variable domains with human IgG1 wildtype Fc
B31: PR006669 (antibody, human IgG1, kappa, V domains shown)
VH: EVQLVESGGGLVQPGGSLRLSCAASGFTFSDNWMSWVRQAPGKGLEWVANIKQDGSENYYVDSVKGRFTISRDNAKNSLYLQMNSLRAEDTAVYYCSRGLALWGWGQGTLVTVSS
VL: DIVMTHSPLSLPVTPGDPASISCRSSQSLLHSTGYNYLDWYLQKPGQSPQLLIYLGSNRASGVPDRFSGSGSGTDFTLKFIRVEAEDVGVYYCMQALQTPYTFGQGTKLEIKR
notes: Series 2; human IgG1 wildtype Fc; also called Hybridoma Clone 52g7
B32: PR006746 (antibody, human IgG1, kappa, V domains shown)
VH: B31 VH with G55S
VL: B31 VL
notes: PTM-removal variant of PR006669

These results are taken from patent US20260042834A1 (HBM ALPHA THERAPEUTICS, published 2026).

Residue numbers refer to the chain shown, from its start.

The first experiment has as its target T1, corticotropin-releasing hormone (CRH) …. Put plainly: cell-based or functional assay.
For the molecule B1, the “hCRHR1 Luciferase Reporter Assay IC50” value was 0.512 nM and the “mCrhr1 Luciferase Reporter Assay IC50” value is 1.37 nM.
On to B2, for which the “hCRHR1 Luciferase Reporter Assay IC50” value came to 2.68 nM.
The same measure, in the same setting: the same measure for B3: 1.48 nM.
For B4, the “hCRHR1 Luciferase Reporter Assay IC50” value is 1.66 nM.
B5: the “hCRHR1 Luciferase Reporter Assay IC50” value was found to be 0.105 nM and the “mCrhr1 Luciferase Reporter Assay IC50” value was 3.19 nM.
On to B6, for which the “hCRHR1 Luciferase Reporter Assay IC50” value came to 0.128 nM.
In the case of B7, the “hCRHR1 Luciferase Reporter Assay IC50” value came to 0.571 nM and the “mCrhr1 Luciferase Reporter Assay IC50” value is 3.54 nM.
Take B8: the “hCRHR1 Luciferase Reporter Assay IC50” value was 0.878 nM and the “mCrhr1 Luciferase Reporter Assay IC50” value worked out at 4.7 nM.
Regarding B9, the “hCRHR1 Luciferase Reporter Assay IC50” value worked out at 1.09 nM.
Turning to B10, the “hCRHR1 Luciferase Reporter Assay IC50” value was 0.573 nM and the “mCrhr1 Luciferase Reporter Assay IC50” value was determined as 6.48 nM.
Regarding B11, the “hCRHR1 Luciferase Reporter Assay IC50” value worked out at 0.552 nM.
On the same count and under the same terms, the same measure for B12: 0.646 nM.
Still for that read-out and setting: the same measure for B13: 2.05 nM; for B14: 0.738 nM.
As for B15, the “hCRHR1 Luciferase Reporter Assay IC50” value was found to be 0.946 nM and the “mCrhr1 Luciferase Reporter Assay IC50” value was determined as 3.29 nM.
The like results for B16 were, in that order, 0.732 nM and 4.09 nM.
As for B17, the “hCRHR1 Luciferase Reporter Assay IC50” value is 1.34 nM.
For B18, the “hCRHR1 Luciferase Reporter Assay IC50” value is 1.04 nM and the “mCrhr1 Luciferase Reporter Assay IC50” value is 4 nM.
As for B19, the “hCRHR1 Luciferase Reporter Assay IC50” value came to 0.507 nM and the “mCrhr1 Luciferase Reporter Assay IC50” value came out at 1.46 nM.
For B20, in that order: 1.04 nM and 1.6 nM.
B21: the “hCRHR1 Luciferase Reporter Assay IC50” value came to 1.88 nM and the “hCRHR1 Reporter IC50” value stood at 1.82 nM.
Take B22: the “hCRHR1 Luciferase Reporter Assay IC50” value was 0.418 nM.
On to B23, for which the “hCRHR1 Luciferase Reporter Assay IC50” value was 1.7 nM and the “mCrhr1 Luciferase Reporter Assay IC50” value amounted to 5.36 nM.
For the molecule B24, the “hCRHR1 Luciferase Reporter Assay IC50” value came out at 0.35 nM and the “mCrhr1 Luciferase Reporter Assay IC50” value came out at 1.83 nM.
For B25, in that order: 1.27 nM and 1.52 nM.

The target of the next experiment is T2, biotinylated CRH. Put plainly: Octet BLI, biotinylated CRH on SA sensor. The protocol: Octet® Red 96e was used for affinity measurement. Octet® running buffer was prepared by diluting kinetics buffer 10× (Fortebio, Cat #18-1105) in PBS according to the manufacturer's instructions. Two columns of SA sensors (Fortebio, Cat #18-5019) were hydrated in running buffer for 10 mins, one for ligand capturing and the other for reference. Antibodies were 2-fold diluted and added into a 96-well plate. […] After a 60-second baseline step, sensors were dipped into analyte and buffer wells successively, with the association and dissociation time of 180 seconds and 800 seconds, respectively. […] Signals of reference wells and reference sensors were subtracted by selecting “Double reference” before data fitting.
As to B26, the Kd is below 0.001 nM, the koff is below 1e-07 s⁻¹ and the kon was determined as 302000 M⁻¹ s⁻¹.
For B27, in that order: below 0.001 nM, below 1e-07 s⁻¹ and 285000 M⁻¹ s⁻¹.
For B28, in that order: below 0.001 nM, below 1e-07 s⁻¹ and 684000 M⁻¹ s⁻¹.
For B29, in that order: 0.0153 nM, 4.03e-06 s⁻¹ and 263000 M⁻¹ s⁻¹.
B30 returned a Kd of 0.00124 nM.
As to B31, the equilibrium dissociation constant (Kd) was found to be 0.12 nM.
B32 registered a Kd of 0.0751 nM, a dissociation rate constant (koff) of 8.69e-05 s⁻¹ and a kon of 1.16e+06 M⁻¹ s⁻¹.

What is called Kd is the equilibrium constant for the complex coming apart. For orientation: koff means a measure of how fast the partners let go of each other. Low readings indicate slow dissociation, high ones fast dissociation. The term kon denotes the second-order rate constant of association.
